For experiment [1], the target named is FGFR2 isoform FGFR2-IIIb (FGFR2b), on the surface of cancer cell lines (UniProt P21802). Briefly: flow cytometry on BT20 cells (TNBC), detected with APC anti-human IgG1.
The target is the same in experiment [2]. Briefly: flow cytometry on HCC38 cells (TNBC), detected with APC anti-human IgG1. On the technique in general: Flow cytometry measures light scatter and fluorescence of single cells or particles in a stream.
Experiment [3] has the same target. Description: flow cytometry on HCC1187 cells (TNBC), detected with APC anti-human IgG1.
Experiment [4] shares this target. Description: flow cytometry on HCC1569 cells (TNBC), detected with APC anti-human IgG1.
Experiment [5] shares this target. Description: flow cytometry on HCC1806 cells (TNBC), detected with APC anti-human IgG1.
Experiment [6] has the same target. Briefly: flow cytometry on HCC1937 cells (TNBC), detected with APC anti-human IgG1.
For experiment [7] the target is unchanged. Briefly: flow cytometry on HARA cells (squamous lung cancer), detected with APC anti-human IgG1.
For experiment [8] the target is unchanged. Description: flow cytometry on LC1F cells (squamous lung cancer), detected with APC anti-human IgG1.
The target is the same in experiment [9]. Description: flow cytometry on SW900 cells (squamous lung cancer), detected with APC anti-human IgG1.
Experiment [10] has the same target. Briefly: flow cytometry on KNS-62 cells (squamous lung cancer), detected with APC anti-human IgG1.
For experiment [11] the target is unchanged. Description: flow cytometry on LUDLU1 cells (squamous lung cancer), detected with APC anti-human IgG1.
Experiment [12] shares this target. Briefly: flow cytometry on SW1573 cells (squamous lung cancer), detected with APC anti-human IgG1.
The target is the same in experiment [13]. Briefly: flow cytometry on NCIH2170 cells (squamous lung cancer), detected with APC anti-human IgG1.
Experiment [14] has the same target. Briefly: flow cytometry on EPLC-272H cells (squamous lung cancer), detected with APC anti-human IgG1.
The target is the same in experiment [15]. Description: flow cytometry on SNU16 cells (gastric cancer, positive control), detected with APC anti-human IgG1.
For experiment [16] the target is unchanged. Description: flow cytometry on KATOIII cells (gastric cancer, positive control), detected with APC anti-human IgG1.
Experiment [17] has the same target. Briefly: flow cytometry on SNU16-Luc cells (gastric cancer, positive control), detected with APC anti-human IgG1.

B1: bemarituzumab (antibody, human IgG1, kappa, V domains shown)
VH: QVQLVQSGAEVKKPGSSVKVSCKASGYIFTTYNVHWVRQAPGQGLEWIGSIYPDNGDTSYNQNFKGRATITADKSTSTAYMELSSLRSEDTAVYYCARGDFAYWGQGTLVTVSS
VL: DIQMTQSPSSLSASVGDRVTITCKASQGVSNDVAWYQQKPGKAPKLLIYSASYRYTGVPSRFSGSGSGTDFTFTISSLQPEDIATYYCQQHSTTPYTFGQGTKLEIKR
modifications: afucosylated: glycan at Asn297 (EU numbering) lacks core fucose
Take B1: the Mean Fluorescence Intensity by FACS is 252 MFI in experiment [1]; 346 MFI in experiment [2]; -6 MFI in [3]; 1360 MFI in experiment [4]; 401 MFI in [5]; 690 MFI in experiment [6]. For the same molecule, the Mean Fluorescence Intensity by FACS is 401 MFI in [7]; 123 MFI in [8]; 10.3 MFI in [9]; 572 MFI in [10]; 638 MFI in [11]; -1.2 MFI in experiment [12]. Besides, the Mean Fluorescence Intensity by FACS is 153 MFI in experiment [13]; 759 MFI in experiment [14]; 7800 MFI in experiment [15]; 20400 MFI in experiment [16]; 7960 MFI in [17].

The record behind these values is patent US20250243284A1.
